Measurements published in US20190248902A1 (published 2019).

T1: human ASGR-1 (human, UniProt P07306 1-291)
T1 construct: Stably expressed on CHO-S cells (CHO-S:huASGR-1); The method text says human or mouse ASGR-1 cells were used; also called huASGR-1; hASGR-1
T1 sequence: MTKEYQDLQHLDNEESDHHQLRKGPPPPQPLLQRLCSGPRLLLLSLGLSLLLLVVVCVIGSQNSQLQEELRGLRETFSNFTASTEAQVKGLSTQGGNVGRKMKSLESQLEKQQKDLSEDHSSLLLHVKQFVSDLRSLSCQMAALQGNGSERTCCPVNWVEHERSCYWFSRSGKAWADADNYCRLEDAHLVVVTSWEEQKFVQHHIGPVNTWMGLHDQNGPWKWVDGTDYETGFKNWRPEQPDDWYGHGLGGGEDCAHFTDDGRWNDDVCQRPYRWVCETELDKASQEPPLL

T2: recombinant, soluble human ASGR-1 (human, UniProt P07306 62-291)
T2 construct: biotinylated in the binning assay; also called soluble huASGR-1; Soluble ASGR-1 (Amgen)
T2 sequence: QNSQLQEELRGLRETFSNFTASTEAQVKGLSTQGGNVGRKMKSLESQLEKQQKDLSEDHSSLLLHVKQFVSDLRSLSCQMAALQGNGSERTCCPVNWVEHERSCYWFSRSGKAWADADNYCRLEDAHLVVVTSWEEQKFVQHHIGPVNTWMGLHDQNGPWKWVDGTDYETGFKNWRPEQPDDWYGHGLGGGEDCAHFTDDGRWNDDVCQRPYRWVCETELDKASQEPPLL


Experiments:
human ASGR-1 [1] = target: T1, human ASGR-1; experiment: FACS ligand blocking on CHO-S ASGR-1 cells; competitor biotinylated asialofetuin
Description: (§1) All ASGR-1 antibodies that bound either human or mouse ASGR-1 stable CHO—S cells were then tested for ligand blocking using both a protein ligand and a synthetic sugar ligand. The method in brief is as follows: first, 20 ul of either CHO-Shuman or mouse ASGR-1 cells were added to wells of a 384 well plate (30 k cells/well) followed by spin and discarding the supernatant. Second, 10 ul of the antibodies (either purified from hybridoma supernatants or made recombinantly) were added in duplicate to the cells in a dilution series (200 nM top concentration, 1:2 serial dilution, 11 point curve) and were incubated for 30 min at 4 C. […] After 30 min incubation at 4C, the plate was spun and washed twice with FACS buffer+1 mM CaCl2 followed by the detection streptavidin-AF647 at 1:1000 dilution. After 30 min at 4C, the cells were spun and washed once and then 60 ul PI added at 1:1000 dilution and the plates delivered to a core flow cytometry facility. The plates were read and processed similarly to the cell binding method except the signal now represents an inhibition curve and typically decreases a function of increasing antibody concentration. IC50 nM potency and % Inhibition were reported. […] Differences in the ability of antibodies to block these two ligands could occur as a result of differences in, for example, avidity stemming from differences in the number and/or orientation of the ASGR binding terminal sugar residues of each ligand, steric hindrance between antibody and each ligand, and/or changes in the conformation of ASGR induced by antibody binding that selectively alters the binding of each ligand.

human ASGR-1 [2] = target: T1, human ASGR-1; experiment: FACS ligand blocking on CHO-S ASGR-1 cells; labelled ligand biotin-GalNAc-PAA (synthetic sugar)
Description: as §1

[3] = target: T2, recombinant, soluble human ASGR-1; experiment: Octet BLI dissociation, pH 5.6 plus calcium
Procedure, shortened: (§2)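 Antibodies were captured on anti-human Fc biosensors, and soluble ASGR-1 (6 ug/ml) was associated for 2 min in Tris buffer containing 1 mM CaCl2 at pH 7.4, followed by 10 min dissociation under each test condition. The signal at the end of association was set as 100%. Percent ASGR-1 still bound after 1 min of dissociation was compared with the pH 7.4 plus calcium control, and >10% extra dissociation was scored as sensitive.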

[4] = target: T2, recombinant, soluble human ASGR-1; experiment: Octet BLI dissociation, pH 5.6 minus calcium
Procedure, shortened: as §2

[5] = target: T2, recombinant, soluble human ASGR-1; experiment: Octet BLI dissociation, pH 7.4 minus calcium
Procedure, shortened: as §2

Row | Binder | % Inhibition (human ASGR-1 [1]) [%] | % Inhibition (human ASGR-1 [2]) [%] | IC50 (human ASGR-1 [1]) [nM] | IC50 (human ASGR-1 [2]) [nM] | % Change Compared to pH 7.4 + Calcium [3] [%] | % Change Compared to pH 7.4 + Calcium [4] [%] | % Change Compared to pH 7.4 + Calcium [5] [%]
1 | 5E5 (antibody, V domains shown) VH: QVQLVESGGGVVQPGRSLRLSCAASGFTFSNYVMHWVRQAPGKGLEWVAVIWYDGSNKYYADSVKGRFTISRDNSKNTLYLQMNSLRAEDTAVYYCTREVYSSGWYDYGMDVWGQGTTVTVSS VL: DIQMTQSPSSLSASVGDRVTITCRASQGIRNDLGWYQQKPGKAPKRLIYAASSLQSGVPSRFSGSGSGTEFTLTISSLQPEDFATYYCLQHYSYPRTFGQGTKVEVK | 95 | 0 |  |  |  |  | 
2 | 7G4 (antibody, V domains shown) VH: QVQLVESGGGVVQPGRSLRLSCAASGFTFNNYVMHWVRQAPGKGLEWVAVIWYDGSNKYYADSVKGRFTISRDNSKNTLYLQMTSLRAEDTAVYYCAREKYSSNWYDYGMDVWGQGTTVTVSS VL: DIQMTQSPSSLSASVGDRVTITCRASQGIRNDLGWYQQRPGKAPKRLIYAASSLQSGVPSRFSGSGSGTEFTLTISSLQPEDSATYYCLHQYSYPRTFGQGTKVEIK | 96 | -30 | 14 | 20 |  |  | 
3 | 6G7 (antibody, V domains shown) VH: QVQLVESGGGVVQPGRSLRLSCAASGFTFSSYGMHWVRQTPGKGLEWVAIISYVGKNKYYADSVKGRFTISRDNSKNTLYLQMNSLRAEDTAVYYCARRGNSYGGYGMDVWGQGTTVTVSS VL: DIQMTQSPSSRSASVGDRVTITCQASQDISNYLNWCQQKPGKALKLLIYDASTLETGVPSRFSGSGSGTDFTFTISSVQPEDIATYYCQQYDNVPITFGQGTRLEIK | 99 | 0 | 11 | > 200 |  |  | 
4 | 7F4 (antibody, V domains shown) VH: QLQLQESGPGLVKPSETLSLTCTVSGGSISRSSYYWGWIRQPPGKGLEWIGNIYYSGATYYNPSLKSRVTISVDTSTNQFSLKLSSVTAADTAVYYCARHSGSWSLDYWGQGTLVTVSS VL: DIQMTQSPSSLSASVGDRVTITCRTSQGIRNDLGWYQQKPGKAPKRLIYAASNLQSGVPSRFSGSGSGTEFTLTISSLQPEDFATYYCLQHSAYPLTFGGGTKVEIK | 99 | 30 | 2.6 | 0.24 |  |  | 
5 | 7E11 (antibody, V domains shown) VH: QVQLVESGGGVVQPGRSLRLSCAASGFTFSSFGMHWVRQAPGKGLEWVAIIWHDGSNKYYADSVKGRFTISRDNSNNTLYLQMSSLRAEDTAVYYCARDLSMGGMDVWGQGTTVTVSS VL: DIQMTQSPSSLSASVGDRVTIACRASQNIISYLNWYQQKPGKAPKFLIYTASSLQSGVPSRFSGSGSGTDFTLTISSLQPEDFAIYYCQQTYSTPLTFGGGTKVEIK | 99 | 37 | 13 | 40 |  |  | 
6 | 12D2 (antibody, V domains shown) VH: EVQLVESGGGLVKPGGSLRLSCAASGFTFSSYSMNWVRQAPGKGLEWVSSISSSSSYIYYADSVKGRFTISRDNAKNSLYLQMNSLRAEDTAVYYCARLGDYWGQGTLVAVSS VL: not shown | 20 | 10 | 10 | 2.1 |  |  | 
7 | 22G5 (antibody, V domains shown) VH: EVQLLESGGGLVQPGGSLRLSCAASGFTFSSYAMNWVRQAPGMGLEWVSVISRSGGYTYYADSVKGRFTISRDNSKNTLYLQMNSLRAEDTAVYYCASRLAVAGSEAFDIWGQGTLVTVSS VL: DIQMTQSPSSLSASVGDRVTITCRASQNISSYLNWYQQKQGKAPKLLIYAASSLQNGVPSRFSGRGSGTDFTLTISSLQPEDFATYYCQQSYRTPLFTFGPGTKVDFK | 99 | 93 |  |  |  |  | 
8 | 25A4 (antibody, V domains shown) VH: QVLLVQSGAEVKRPGASVKVSCKASGYTFTNYDINWVRQATGQGLEWMGWMYPNSGNTGYAQKFQGRVTMTRNTSISTAYMELSSLRSEDTAVYYCASSSGWYYFDYWGQGTLVTVSS VL: DIVMTQFPDSLAVSLGERATIKCKSSQSVLYSSHNNNYLAWYQQKPGQPPKLLLYWASTRESGVPDRFSGSGSGTEFTLTISSLEAEDVAVYYCQQYYSTPPTFGQGTKVEIK | 99 | 77 | 11 | 40 |  |  | 
9 | 26C4 (antibody, V domains shown) VH: QVQLVQSGAEVKKPGASVKVSCKASGYTFTNYDINWVRQASGQGLEWMGWMNPNSGNTGYAQRFQGRVTMTRNTSINTAYMELSSLRSEDTAVYYCASSSGWYYFDYWGQGTLVTVSS VL: not shown | 99 | 83 | 6.6 | 36 |  |  | 
10 | 29H8 (antibody, V domains shown) VH: QVQLVQSGAEVQKPGASVKVSCKASGYTFTNYDINWVRQATGQGLEWMGWMNPNSGNTGYAQRFQGRVTMTRNTSISAAYMELSSLRSEDTAVYYCASSSGWYYFDYWGQGTLVTVSS VL: not shown | 99 | 99 | 7 | 17 |  |  | 
11 | 48B12 (antibody, V domains shown) VH: EVQLLESGGGLVQPGGSLRLSCAASGFTFSSYAMNWVRQAPGKGLEWVSAISGRGGNTFYADSVKGRFTISRDNSKNTLYLQMNSLRAEDTAVYYCAKRETYNWNYEGFDYWGQGTLVTVSS VL: SYELTQPPSVSVSPGQTARITCSGDALPKKYAYWYQQKSGQAPVLVIYEDSKRPSGIPERFSGSSSGTMATLTISGAQVEDEADYYCNSTDSSGNHVVFGGGTKLTVL | 99 | 94 | 19 | 86 |  |  | 
12 | 54E9 (antibody, V domains shown) VH: QVQLVQSGAEVKKPGASVKVSCKASGYTFNSYGISWVRLAPGQGLEWMGWISAYNGNTKNAQKLQGRVTMTTDTSTSTAYMELRSLRSDDTAVYYCARHDFWSGYYKGMDVWGQGTTVTVSS VL: not shown | 75 | 19 | 50 | 100 |  |  | 
13 | 56E5 (antibody, V domains shown) VH: QVQLVQSGAEVKKPGASVKVSCQASGYTFTGYHMHWVRQAPGQGLEWMGWINPNNNATNYAQKFQGRVTMTRDTSISTAYMELRRLRSDDTAVYHCARDGTSSFDYWGQGTLVTVSS VL: DIQMTQSPSSVSASVGDRVTITCRASQGIRKWLAWYQQKPGKAPKLLIYAASSLQSGVPSRFSGSGSGTDFTLTISSLQPEDFATYYCQQANSFPFTFGPGTKVDIK | 99 | 99 | 23 | 45 |  |  | 
14 | 202A3 (antibody, V domains shown, hybridoma mAb) VH: QVQLEQSGAEVKKPGASVKVSCKASGYTFTSYDINWVRQATGQGLEWLGWMNPKRGNTGYAQKFQGRVTMTRNTSISTAHMELSSLRSEDTAVYYCARGRYSREDYYYYYDMDVWGQGTTVTVSS VL: DIQMSQSPSSLSASVGDRVTITCRASQGIRNDLGWYQQKPGKAPKRLICAASRLQSGVPSRFSGSGSGTEFTLTISSLQPEDFAIYYCLQHHDYPFTFGPGTKVDIK |  |  |  |  | -22 | -23 | -21
15 | 52D10 (antibody, V domains shown, hybridoma mAb) VH: QVQLVESGGGVVQPGRSLRLSCAASGFTFSSYGMHWVRQAPGKGLEWVALIWYDGSNKYHADSVKGRFTISRDNSKNTLYLQMNSLRAEDTAVYYCARRYSSSWSGGMDVWGQGTTVTVSS VL: DVMMTQIPLSLSVTPGQPASISCKSSQSLLHSEGKTYLYWYLQKPGQPPQLLIFEVSNRVSGVPDRFSGRGSGTDFTLKISRVEAEDVGVYYCMQSIQYPITFGQGTRLEIK |  |  |  |  | 3 | 45 | 21
